How the values were obtained:
Dynamin = settings: cited from earlier work
[1] = rabbit, in vivo
Source text: An array of microneedles including a nanopatterned surface was formed. Initially, an array of microneedles as illustrated in FIG. 2 was formed on a silicon wafer via a photolithography process. Each needle included two oppositely placed side channels, aligned with one through-die hole in the base of the needle (not visible on FIG. 2).
Microneedles were formed according to a typical micromachining process on a silicon based wafer. The wafers were layered with resist and/or oxide layers followed by selective etching (oxide etching, DRIE etching, iso etching), resist stripping, oxide stripping, and lithography techniques (e.g., iso lithography, hole lithography, slit lithography) according to standard methods to form the array of microneedles. The microneedles were 300 microns tall and 100 microns in diameter.
Following formation of the microneedle array, a 5 μm polypropylene film including a DN2 or a polypropylene film including a DN3 pattern formed thereon as described above in Example 1 was laid over the microneedle array. The wafer/film structure was held on a heated vacuum box (3″ H2O vacuum) at elevated temperature (130° C.) for a period of one hour to gently pull the film over the surface of the microneedles while maintaining the nanopatterned surface of the film.
The transdermal patches measured 25 mm by 25 mm with a density of 784 microneedles/cm^2. Control patches were also formed that had no pattern formed on the film subsequently applied to the array of microneedles.
Two subjects were utilized for each device type.
Approximately 100 to 200 μl blood was taken via—mandibular bleeding and then centrifuged at approximately 1300 rpm for 10 minutes in a refrigerated centrifuge (set at 4° C.). The resulting serum was aspirated and transferred within 30 minutes of blood collection/centrifugation to appropriately labeled tubes. The tubes were frozen and stored in the dark at ≤−70° C. until they were analyzed for levels of Enbrel® using Human sTNF-receptor ELISA kit (R&D Systems cat #DRT200). The space time between two blood samplings on the same subject was 24 hours, to prevent unnecessary stress placed on the subject.
Following, the blood serum level gradually declined within 56 hours of attachment and then leveled off.

[2] = Organ and tissue etanercept concentration after 72 hours (sTNF RII ELISA); settings: rabbit
Method: Test subjects (rabbits) were transdermally dosed with Enbrel® or were subcutaneously (SubQ) dosed with Enbrel®. […] The subcutaneous dose formulation (for the positive control) was prepared to facilitate a 2.5 mg/animal and the transdermal dose formulation was 1.875 mg/animal. Two subjects were utilized for each device type.
After 72 hours, several different organs and tissue types in each subject were examined for etanercept concentration. Specifically, organ representative samples of approximately 100 mg each were placed in labeled 50 mL conical storage tubes and stored in the dark at approximately −70° C. for preservation testing.
For analysis of Enbrel levels in tissues at the analytical laboratory, tissues were tested by use of a Quantikine® Human sTNF RII/TNFRSF1B Immunoassay (catalog no. DRT200, SRT200, PDRT200) available from R&D Systems, Inc. of Minneapolis, MN, USA. The immunoassay is a solid phase ELISA assay for determination of sTNF RII. The protein was measured against the standard provided with the kit, and etanercept was measured against a standard curve, with concentrations based on the dosage details.
All concentrations are provided as ng/g tissue. The ELISA detection mechanism could be utilized for concentrations down to about 0.6 pg/mL. Results of <MIN signify a concentration too low to be determined by the ELISA assay. Results of N/A indicate an error in the ELISA assay, with no reportable results obtained.

EpiDerm™ tissue = assay: Etanercept delivery across EpiDerm tissue on nanopatterned film (donor/receptor chamber); type: in vitro ADME; settings: 1 mg/mL, 37° C.; for increase in the amount of etanercept in the receiver chamber: EpiDerm tissue on DN2 patterned film
Source text: A device as illustrated in FIG. 28 was assembled including a film (i.e., a membrane) defining a pattern of nanostructures on a surface thereof. The film was formed as described above in Example 1 and was a polypropylene film including a DN2 pattern on the surface thereof. An EpiDerm™ tissue, a three dimensional construct organized into basal, spinous, and granular layers along a multi-layered stratum corneum available from MatTek Corporation, was located on the surface of the film as described above with regard to the monocellular layer.
A 1 mg/mL composition including the high molecular weight drug etanercept (Enbrel®) was prepared. Etanercept is a fusion protein having a molecular weight of 150 kDa. Phosphate buffered saline was located in the receptor chamber. The system was incubated at 37° C. and samples were withdrawn every five hours.
The composition was loaded in to the donor chamber on one side of an EpiDerm™ tissue either on the DN2 nanostructure film or on a polypropylene film with no nanopattern formed thereon (PPUI), and samples were withdrawn from the receptor chamber on the other side of the cell layer, as illustrated in FIG. 28. As can be see with reference to FIG. 29, following one hour, very little etanercept had passed into the receptor chamber for the control, while there was approximately a 1.7 fold increase in the amount of etanercept in the receiver chamber for the sample on the DN2 patterned film. After two hours, there was an approximately 2-fold increase for the system including the DN2 patterned film.

[3] = test system: monolayer of Caco-2 cells; assay: Caco-2 monolayer permeability (TEER) transport study of FITC-etanercept with Dynasore blocking Dynamin; type: in vitro ADME, human; settings: DN2 polypropylene film, 0.1 mg/mL Dynasore and FITC-conjugated etanercept, FIG. 25
Method: The permeability effects of films patterned as described above were determined on a monolayer of Caco-2 cells (human epithelial colorectal adenocarcinoma cells). The effects of the nanostructured surfaces on transcellular transport mechanisms were investigated by blocking Dynamin, a critical protein in endocytosis, with Dynasore. Dynamin is a large GTPase protein that self-assembles into a spiral shape, constricting around budding vesicles to free them from the plasma membrane and into the cytosol for transcellular transport. The small molecule, Dynasore, is able to rapidly block the activity of Dynamin by quickly inhibiting the GTPase module of Dynamin within about 2 minutes and has been used in numerous studies for probing the mechanisms of cellular internalization and endocytosis for transcellular transport. The transport study was a transepithelial electrical resistance (TEER) study that was carried out in the presence of Dynasore to biochemically block the activity of Dynamin and preclude both clathrin and caveolin mediated endocytosis.
Films formed as described in Example 1 and Example 2 were utilized including a polypropylene (PP) film formed with a pattern designated as DN2, and a flat, nonpatterned polypropylene film. As control, a monolayer of cells with no associated film was utilized.
• 1. […] Measure fluorescence signal using a spectrofluorometer plate reader. […]

O=C(N/N=C/c1ccc(O)c(O)c1)c1cc2ccccc2cc1O [Dynasore]
time to inhibit the GTPase module of Dynamin (Dynamin): ≤ 2 min

etanercept
absorption of etanercept compared to the flat, unstructured device [1]: significantly increased | bioavailability relative to the control patch [1]: about 35 times | blood serum level of etanercept (course) [1]: very low levels | decrease of time to reach the maximum concentration [1]: ~24 h | increase in the maximum concentration [1]: 95% | time of peak blood serum level [1]: approximately 48 hours | time within which blood serum level gradually declined, then leveled off [1]: ≤ 56 h | etanercept concentration in kidney ([2]; Subcutaneous dose 2.5 mg/animal): 10.14 ng/g tissue | etanercept concentration in kidney ([2]; microneedle patch with Control Film (no pattern), 1.875 mg/animal): 10.66 ng/g tissue | etanercept concentration in kidney ([2]; microneedle patch with DN3 pattern, 1.875 mg/animal): 11.3 ng/g tissue | increase in the amount of etanercept in the receiver chamber (EpiDerm™ tissue; after two hours): approximately 2 fold | increase in the amount of etanercept in the receiver chamber (EpiDerm™ tissue; following one hour): ~1.7 fold | amount of etanercept passed into the receptor chamber (EpiDerm™ tissue; EpiDerm tissue on polypropylene film with no nanopattern (PPUI, control), following one hour): very little | effect of blocking the transcellular delivery route on etanercept transport across the layer [3]: did not significantly decrease

Reference: patent US12138415B2, “Increased bioavailability of transdermally delivered agents” (priority 2011, dated 2024)
